Data taken from patent publication US20230295310A1 (ABCELLERA BIOLOGICS, published 2023).

The binders below were run against T1, human CD3 expressed on cells (human, UniProt P07766 23-207; P04234 22-171; P09693 23-182) (assay: flow cytometry, 25 nM).
T1 construct: whole, on cells; CD3 complex on Jurkat cells and on human primary T cells
Experimental: Purified antibodies were confirmed to bind CD3 expressed on cells using the CytoFLEX S or LX flow cytometers (Beckman Coulter). Antibodies were diluted to 25 nM in FACS buffer (PBS+2% FBS) and were incubated with CD3-expressing cells for 30 minutes at 4° C. […] The median fluorescence intensity of the binding signal for each antibody was normalized to the isotype control to obtain a fold over isotype value. An antibody with a fold over isotype (FOI) of ≥10 was considered to be positive for binding.

T1 sequence (P07766 23-207, chain 1 of 3): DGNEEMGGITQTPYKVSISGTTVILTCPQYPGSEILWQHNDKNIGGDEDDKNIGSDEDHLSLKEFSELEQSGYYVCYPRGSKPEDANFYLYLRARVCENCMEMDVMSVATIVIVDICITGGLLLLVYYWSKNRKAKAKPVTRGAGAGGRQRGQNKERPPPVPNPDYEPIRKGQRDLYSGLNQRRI
T1 sequence (P04234 22-171, chain 2 of 3): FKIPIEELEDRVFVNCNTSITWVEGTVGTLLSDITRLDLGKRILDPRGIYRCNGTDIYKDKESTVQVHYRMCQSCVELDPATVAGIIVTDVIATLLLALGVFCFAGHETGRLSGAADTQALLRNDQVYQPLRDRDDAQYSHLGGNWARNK
T1 sequence (P09693 23-182, chain 3 of 3): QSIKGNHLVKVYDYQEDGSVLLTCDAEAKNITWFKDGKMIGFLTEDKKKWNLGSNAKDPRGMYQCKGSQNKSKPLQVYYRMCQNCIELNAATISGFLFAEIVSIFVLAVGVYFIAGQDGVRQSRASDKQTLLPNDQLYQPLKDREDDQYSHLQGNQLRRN

| Binder | Human primary T Cell Binding (FOI) | Jurkat Cell Binding (FOI) |
| --- | --- | --- |
| mAb 43 (antibody, V domains shown) VH: QAQLVQSGSELKKPGASVKVSCKASGYTFTKHSMNWVRQAPGQGLEWMGWINTNTGNPMYAQGFTGRFVFSLDTSVTTAYLQISSLKAEDTAVYYCAREGDYDFWSGFFNFDYWGQGTLVTVSS VL: DIQMTQSPSSLSASVGDRVTITCRASQGIRNDLGWYQQKPGKAPKRLIYAASSLQSGVPSRFSGSGSGAEFTLTISSLQPEDFATYYCLQHNSYPRTFGQGTKVEIK | 83.3 | 108 |
| mAb 68 (antibody, V domains shown) VH: EVQLVDSGGGLVQPGGSLRLSCSGSGFTFSSYWMSWVRQAPGKGLEWVANIKQDGSQKYYVDSVKGRFTISRDNVKNSLYLQMNSLRVEDTAVYYCARDESSSWYWYFDLWGRGTLVTVSS VL: DIQMTQSPSTLSASVGDRVTLTCRASQNIVKWLAWYQQKPGKAPKLLIYKASSLESGVPSWFSGSGSGTEFTLTINSLQPDDFATYYCQQYYTYSRTFGQGTKVEIK | 117 | 113 |
| mAb 77 (antibody, V domains shown) VH: EVQLVESGGGLVQPGGSLRLSCAASGFTFSNYWMSWVRQAPGKGLEWVANIKQDGSEKYYVDSVRGRFTISRDNAKKSLYLQMNSLRAEDTAVYYCARDNSNYAYWYFDIWGRGTLVTVSS VL: DIQMTQSPSTLSVSVGDRVTITCRASQSIRKWLAWYQQKPGKAPKLLIFKASSLESGVPSRFSGSGSGTEFTLTISSLQPDDFATYYCQQYDTYSRTFGQGTKVEIK | 125 | 106 |
| mAb 161 (antibody, V domains shown) VH: EVQLVESGGGLVQPGRSLRLSCAASGITFADYTMHWVRQAPGKGLEWVSGISWNSGSIDYADSVKGRFTISRDNAKKTLYLQMNRLRAEDTALYYCAKDSSGYGHYYFYYLDVWGKGTTVTVSS VL: EIVMTQSPATLSVSPGERATLSCRASQSVSNNLAWYQQKPGQAPRLLIYSTSTRATGIPARFSGSRSGTEFTLTISSLQSEDSAVYYCQQYNNWPHFGQGTRLEIK | 170 | 106 |
| mAb 140 (antibody, V domains shown) VH: QVQLVESGGGVVQPGRSLRLSCAASGFTFSTYGMHWVRQAPGKGLEWVAVIWYDGSHKYYADSVKGRFTISRDNSKNTLYLQMNSLRAEDTAVYYCARTGITGTTAYFYFDYWGQGTLVTVSS VL: not shown [mAb 140, listing 1 of 2 here] | 148 | 135 |
| mAb 144 (antibody, V domains shown) VH: QVQLVESGGYVVQPGRSLRLSCAASGFTFSNFGMHWVRQAPGKGLEWVAVIWYDGSHKYYADSVKGRFTISRDNSKNTLYLQMNSLRAEDTAVYYCARTGITGTTAYFYFDYWGQGTLVTVSS VL: not shown | 157 | 139 |
| mAb 146 (antibody, V domains shown) VH: QVQLVESGGGVVQPGRSLRLSCAASGFTFITYGMHWVRQAPGKGLEWVAVIWYDGSHKYYADSVKGRFTISRDNSKNMLYLQMNSLRVEDTAVYYCARTGITGTTAYFYFDNWGQGTLVTVSS VL: not shown [mAb 146, listing 1 of 2 here] | 340 | 194 |
| mAb 167 (antibody, V domains shown) VH: EVHLVESGGGLVQPGRSLRLSCAASGFTFDDYAMHWVRQAPGKGLEWVSGISWNSGTIGYADSVKGRFTISRDNAKNSLYLEMNSLRAEDTALYYCAKDSSGYGHYYHYYIDVWGTGTTVTVSS VL: EIVMTQSPATLSVSPGGRATLSCRASQSVGSNLAWYQQKPGQAPRLLIYDASTRATGIPARFRGSGSGTEFTLTISGLQSEDFAVYYCQLYYNWPHFGQGTRLEIK | 167 | 124 |

What follows are binders tested against human CD3 (human, UniProt P07766 23-207; P04234 22-171; P09693 23-182) (assay: cell-based or functional assay).
human CD3, sequence (P07766 23-207, chain 1 of 3): as the sequence (P07766 23-207, chain 1 of 3) above
human CD3, sequence (P04234 22-171, chain 2 of 3): as the sequence (P04234 22-171, chain 2 of 3) above
human CD3, sequence (P09693 23-182, chain 3 of 3): as the sequence (P09693 23-182, chain 3 of 3) above

| Binder | CD4 EC50 (nM); CD69/CD25 on human T cells, plate-coated antibody [nM] | CD8 EC50 (nM); CD69/CD25 on human T cells, plate-coated antibody [nM] |
| --- | --- | --- |
| mAb 42 (antibody, V domains shown) VH: QAQLVQSGSELKKPGASVKVSCKASGYTFTKHSMNWVRQAPGQGLEWMGWINTNTGNPTYAQGFTGRFVFSLDTSVTTAYLQISSLKAEDTAVYYCAREGDYDFWSGFFNFDYWGQGTLVTVSS VL: DIQMTQSPSSLSASVGDRVTITCRASQGIRNDLGWYQQKPGKAPKRLIYAASSLQSGVPSRFSGSGSGAEFTLTISSLQPEDFATYYCLQHNSYPRTFGQGTKVEIK | 25.4 | 25.5 |
| mAb 49 (antibody, V domains shown) VH: EVQLVESGGGLVPPGGSLRLSCVASGFTLRSYTMNWVRQAPGQGLEWISYISSTSRTIYYSDSVKGRFTISRDNAKNSLYLQVNSLRDEDTALYYCAREDYYDSSGFDCWGQGTLVTVSS VL: AIRMTQSPSSFSASTGDRVTITCRASQGIFNYLAWYQQKPGKAPKLLIYSTSTLQSGVPSRFSGSGSGTDFTLTIRGLQSEDLATYYCQQYYSFPRTFGQGTKVDIK | 6.76 | 6.65 |
| mAb 131 (antibody, V domains shown) VH: EVQLVESGGGLVKTGGSLRISCVASGFSFKKAWMNWVRQAPGKGLEWVGRIKRNTDGGTIDYAAPVKGRFSLSRDDSKNTLFLQMNSLKTEDTAVYFCTTLDSSSYYVGYYYMDVWGKGTTVTVSS VL: DIHMTQSPSSVSASVGDRVTITCRASQDINNWLAWYQQKPGKAPKLLIYTASSLQSGVPSRFSGSGSGTDFTLTISSLQPEDFATYFCQQAHSLPITFGQGTRLGIK | 13.3 | 13.3 |
| mAb 132 (antibody, V domains shown) VH: DVQLVESGGGTVKTGGSLRLSCVASGFSFKKAWMNWVRQAPGKGLEWVGRIKKNSDGGTADYAAPVKGRFTISRDDSKKTLYLQMNSLQTEDTAVYYCTTLDSSSWYVGYYYMDVWGKGTTVTVSS VL: DIQMTQSPSSVSASVGDRVIITCRASQDINNWLAWYQQKPGIAPKLLIYTASSLQSGVPSRFSGSGSVSDFTLTIGSLQPEDFATYYCQQAHSLPITFGQGTRLEIK | 6.39 | 6.34 |
| mAb 133 (antibody, V domains shown) VH: EVQLVESGGGLVKTGGSLRLSCVASGFSFKKAWMSWVRQAPGKGLEWVGRIKRNTDGGTADYAAPVKGRFTLSRDDSKKTLFLQMNSLKTEDSAVYYCVTLDSSSYYVGYYYMDVWGKGTTVTVSS VL: DIQMTQSPSSVSASVGDRVSITCRASQDINNWLAWYQQKPGKAPKLLIYTASSLQSGVPSRFSGSGSGTDFTLTIGSLQPEDFATYYCQQAHSLPITFGQGTRLEIK | 13.9 | 13.6 |
| mAb 137 (antibody, V domains shown) VH: QVQLVESGGGVVQPGRSLRLSCAASGFTFSTYGMHWVRQAPGKGLEWVAVIWYDGSHKYYADSVKGRFTISRDNSKKTLYLQMNSLRAEDTGIYYCARTGISGNMSYFYFDHWGQGILVTVSS VL: not shown | 13.1 | 14.1 |
| mAb 140 (antibody, V domains shown) VH: QVQLVESGGGVVQPGRSLRLSCAASGFTFSTYGMHWVRQAPGKGLEWVAVIWYDGSHKYYADSVKGRFTISRDNSKNTLYLQMNSLRAEDTAVYYCARTGITGTTAYFYFDYWGQGTLVTVSS VL: not shown [mAb 140, listing 2 of 2 here] | 13.7 | 17.8 |
| mAb 141 (antibody, V domains shown) VH: QVQLVQSGAEVKKPGASVKVSCKASGYTFTSYYIHWVRQAPGQGLDWMGIINPSGGITGYAQKLQGRVTMTRDTSTTTVYMELSSLRSDDTAVYYCARGVRGNYYYYYMDVWGKGTTVTVSS VL: EIVLTQSPDFQSVTPKEKVTITCRASQSIGSKLHWYQQKPDQSPKLLIKYASQSFSGVPSRFSGSGSGTDFNLTINSLEAEDAATFYCHQSSGLPYTFGQGTKLEIK | 22.1 | 22.8 |
| mAb 50 (antibody, V domains shown) VH: QAQLVQSGSELKKPGASVKVSCKASGYTFTRHAMNWVRQAPGQGLEWMGWINTNTGNPTYAQGFTGRFVFSLDTSVTTAYLQISSLKAEDTAVYYCAREGDYDFWSGFFNFDYWGQGTLVTVSS VL: DIQMTQSPSSLSASVGDRVTITCRASQGIRNDLGWFQQKPGKAPTRLIYAASSLQSGVPSRFSGSGSGAEFTLTISSLQPEDFATYYCLQHNSYPRTFGQGTKVEIK | 26.3 | 24.5 |
| mAb 142 (antibody, V domains shown) VH: QVQLVESGGGVVQPGRSLRLSCAASGFTFSSYGMHWVRQAPGKGLEWVAVIWYDGSNKYYADSVKGRFTISRDNSKNTLYLQMNSLRAEDTAVYYCARTGITGTTAYFYFDSWGQGTLVTVSS VL: not shown | 26.9 | 32 |
| mAb 145 (antibody, V domains shown) VH: QVQLVQSGAEVKKPGASVKVSCKASGYTFTNYYIHWVRQAPGQGLDWMGIINPSGGITGYAQKFQGRVTMTRDTSTTTVYMELSSLRSDDTAVYYCARGVRGNYYYYYMDVWGKGTTVTVSS VL: EIVLTQSPDFQSVTPKEKVTITCRASQSIGSKLHWYQQKPDQSPKLLIKFASQSFSGVPSRFSGSGSGTDFNLTINSLEPEDAATFYCHQSSGLPYTFGQGTKLEIK | 13.3 | 14.9 |
| mAb 146 (antibody, V domains shown) VH: QVQLVESGGGVVQPGRSLRLSCAASGFTFITYGMHWVRQAPGKGLEWVAVIWYDGSHKYYADSVKGRFTISRDNSKNMLYLQMNSLRVEDTAVYYCARTGITGTTAYFYFDNWGQGTLVTVSS VL: not shown [mAb 146, listing 2 of 2 here] | 12.5 | 12.6 |
| mAb 153 (antibody, V domains shown) VH: QVQLVESGGGVVQPGRSLRLSCAASGFTFSTYGMHWVRQAPGKGLEWVAVIWYDGSHKYYSDSVKGRFTISRDNSKNTLYLQMNSLRVEDTAIYYCARTGITGTTAYFYFDSWGQGTLVTVSS VL: not shown | 8.76 | 8.56 |
